From paper PMC10216065

Target: T1, E. coli SufE (E. coli), P76194
T1 chain: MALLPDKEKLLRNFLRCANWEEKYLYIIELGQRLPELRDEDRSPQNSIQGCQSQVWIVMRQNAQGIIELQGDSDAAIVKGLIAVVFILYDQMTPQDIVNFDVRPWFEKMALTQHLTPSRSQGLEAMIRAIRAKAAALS
Experiment: cross-linking; disulfide-linked species after treatment with 1 mM H2O2; SDS-PAGE under reducing (+DTT) and non-reducing (-DTT) conditions
Conditions: remark: other sources report otherwise

percent of total SufE as disulfide-bonded homodimer: 34%
B1: E. coli SufE, P76194 1-138 (natural protein)
chain: MALLPDKEKLLRNFLRCANWEEKYLYIIELGQRLPELRDEDRSPQNSIQGCQSQVWIVMRQNAQGIIELQGDSDAAIVKGLIAVVFILYDQMTPQDIVNFDVRPWFEKMALTQHLTPSRSQGLEAMIRAIRAKAAALS
